A word on the Kd: it is the equilibrium constant for the complex coming apart.

Numbering of substitutions follows the chain as printed. * marks the point of attachment. Biotin = O=C1N[C@H]2[C@H](CS[C@H]2CCCCC(=O)*)N1

The target of one assay is T1, Peptide_001 (human).
T1 peptide: MAEPRQEFEVMEDHA
Description: peptide array. How it is done:
(§1) Chimeric IgG antibodies were diluted to a concentration of 5 μg/mL in 3% bovine serum albumin in Tris-buffered saline (10 mM Tris, pH 7.5, 150 mM NaCl) supplemented with 0.05% Tween®20 (3% BSA-TBST). Diluted antibodies were allowed to bind to peptides printed onto slides for 2 hours at room temperature as described in the PepStar™ user manual (JPT Technologies). Following extensive washing (5×5 minutes with TBST), slides were incubated with secondary antibodies goat anti-human IgG, Alexa Fluor 568 conjugate, 1 μg/mL in 3% BSA-TBST) for 1 hour at room temperature. After extensive washing, (5×5 minutes with TBST, then 5×5 minutes with ultrapure water), slides were dried overnight and imaged using an Opera Phenix™ system in the 568 nm channel. Images were aligned to peptide array definition files using Galviewer software obtained from JPT Technologies and ImageJ software with control human IgG serving as landmarks.
(§2) Full-length human Tau (encoded by the microtubule-associated protein Tau isoform 2 gene (MAPT), amino acid sequence NCBI Reference Sequence No. NP_005901.2, SEQ ID NO: 1, variant designation “2N4R”) was divided into 15 amino acid peptides, offset by 5 amino acids (overlapping by 10 amino acids). Peptides were synthesized and covalently attached to silica slides in triplicate with a spot size of 0.5 mm (obtained from JPT Technologies, Berlin, Germany). Antibodies muIgG were diluted to a concentration of 30 μg/mL in 3% bovine serum albumin in Tris-buffered saline (10 mM Tris, pH 7.5, 150 mM NaCl) supplemented with 0.05% Tween® 20 (3% BSA-TBST). Diluted antibodies were allowed to bind to peptides printed onto slides for 2 hours at room temperature as described in the Pepstar™ user manual (JPT Technologies). Following extensive washing (5×5 min TBST), slides were incubated with secondary antibodies (donkey anti-mouse IgG, Alexafluor 647 conjugate, 5 μg/mL in 3% BSA-TBST) for 1 hour at room temperature. After extensive washing, (5×5 minutes TBST, 5×5 minutes ultrapure water), slides were dried under a stream of nitrogen and imaged on the Opera Phenix in the 647 nm channel. Images were aligned to peptide array definition file using Galviewer software obtained from JPT Technologies and ImageJ software with control mouse IgG serving as landmarks.

A further assay deals with T2, Peptide_023 (human).
T2 peptide: TPSLEDEAAGHVTQA
Description: peptide array. How it is done:
as §1, §2

The target in the next assay is T3, Peptide_021 (human).
T3 peptide: TTAEEAGIGDTPSLE
Description: peptide array. How it is done: as §1, §2

In a further assay the target is T4, Peptide_014 (human).
T4 peptide: AKSTPTAEDVTAPLV
Description: peptide array. How it is done: as §1, §2

The target of the next assay is T5, Peptide_032 (human).
T5 peptide: GAAPPGQKGQANATR
Description: peptide array. How it is done: as §1, §2

The target of a further assay is T6, process-control peptide.
T6 construct: array control, not a Tau peptide
T6 peptide: GGSGGGSDYKDDDDK
Briefly: peptide array. How it is done: as §1, §2

The next assay has as its target T7, Peptide_047 (human).
T7 peptide: TPPKSPSSAKSRLQT
Description: peptide array. How it is done:
as §1, §2

In the next assay the target is T8, Peptide_045 (human).
T8 peptide: REPKKVAVVRTPPKS
Description: peptide array. How it is done: as §1, §2

For a further assay, the target named is T9, Peptide_080 (human).
T9 peptide: SPVVSGDTSPRHLSN
Briefly: peptide array. How it is done:
as §1, §2

Assay [1] has as its target T10, Tau 251-270 peptide, unphosphorylated (human, N-terminal biotin; C-terminal amide).
T10 peptide: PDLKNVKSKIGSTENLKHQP
Description: ELISA on biotinylated peptide. How it is done:
(§3) Peptides corresponding to original binding sites on the microarray were synthesized and included all permutations of phospho-serine epitopes. Peptides were synthesized with a biotinylated N-terminus and C-terminal amide. Peptides were purified and confirmed by mass spectrometry. Peptides were then bound to streptavidin-coated plates in half serial dilutions from 250 ng/well of each peptide. Antibody binding was tested at 1 μg/mL in 5% BSA TBST, followed by washing and detection with goat anti-human HRP (as described above in the “Chimeric IgG ELISA” section).
On the technique in general: ELISA stands for enzyme-linked immunosorbent assay.

Assay [2] has as its target T11, Tau 346-360 peptide, unphosphorylated (human, SMILES …).
T11 peptide: Biotin-FKDRVQSKIGSLDNI-NH2
Description: ELISA on biotinylated peptide. How it is done:
as §3

Assay [3] has as its target T12, full-length human Tau (Tau441; 2N4R), recombinant (human, UniProt P10636 1-758).
T12 construct: made in E. coli, His6-Smt3 tag removed; biotinylated through amines for Octet and phage work; also called r-Tau; recombinant Tau
Briefly: SPR Biacore, IgG captured, r-Tau injected. How it is done:
The affinity of chimeric IgG antibodies 1C7, 1A1, 1A5, 1D10, and 1G7 for recombinant Tau was determined by surface plasmon resonance using a Biacore™ T200 instrument. Biacore™ Series S CM5 sensor chips were immobilized with monoclonal mouse anti-human IgG (Fc) antibody (human antibody capture kit from GE Healthcare). 1 μg/mL of antibody was captured for 1 minute on each flow cell and serial 3-fold dilutions of recombinant Tau were injected at a flow rate of […]. Each sample was analyzed with a 3-minute association and a 10-minute dissociation. After each injection the chip was regenerated using 3M MgCl₂. Binding response was corrected by subtracting the RU from a flow cell capturing an irrelevant IgG at similar density. A 1:1 Languir model of simultaneous fitting of kₒₙ and koff was used for kinetics analysis.
On the technique in general: In SPR one partner is held on a chip, and binding of the other changes the refractive index at the surface.

Assay [4] has as its target T12, full-length human Tau (Tau441; 2N4R), …. Briefly: Octet binning on biotin-r-Tau; competitor 1A5. How it is done:
(§4) Epitope binning assays were performed using a FortéBio® Octet® RED384 instrument using FortéBio® Streptavidin biosensors. Biotinylated recombinant Tau was diluted to a concentration of 2 μg/mL in kinetic buffer (obtained from FortéBio®) and captured onto individual biosensors for 1 minute. A baseline was then established for 1 minute in kinetic buffer. The loaded biosensors were dipped into 10 μg/mL of the first chimeric IgG antibody until signal saturation, followed by dipping into 1 μg/mL of a second antibody. The binding for the second antibody was normalized to its total binding in the absence of the first antibody.
On the technique in general: Biolayer interferometry detects binding as a change in optical thickness at a sensor tip.

The target is the same in assay [5]. Description: Octet binning on biotin-r-Tau; competitor 1C7. How it is done:
as §4

The target is the same in assay [6]. Description: Octet binning on biotin-r-Tau; competitor 1G7. How it is done:
as §4

Assay [7] has the same target. Briefly: Octet binning on biotin-r-Tau; competitor 1D10. How it is done:
as §4

Assay [8] shares this target. Briefly: Octet binning on biotin-r-Tau; row antibody Ab107 (anti-BACE1 control). How it is done:
as §4

T12 sequence (P10636 other isoform, or with tags, fused parts or gaps limits assumed): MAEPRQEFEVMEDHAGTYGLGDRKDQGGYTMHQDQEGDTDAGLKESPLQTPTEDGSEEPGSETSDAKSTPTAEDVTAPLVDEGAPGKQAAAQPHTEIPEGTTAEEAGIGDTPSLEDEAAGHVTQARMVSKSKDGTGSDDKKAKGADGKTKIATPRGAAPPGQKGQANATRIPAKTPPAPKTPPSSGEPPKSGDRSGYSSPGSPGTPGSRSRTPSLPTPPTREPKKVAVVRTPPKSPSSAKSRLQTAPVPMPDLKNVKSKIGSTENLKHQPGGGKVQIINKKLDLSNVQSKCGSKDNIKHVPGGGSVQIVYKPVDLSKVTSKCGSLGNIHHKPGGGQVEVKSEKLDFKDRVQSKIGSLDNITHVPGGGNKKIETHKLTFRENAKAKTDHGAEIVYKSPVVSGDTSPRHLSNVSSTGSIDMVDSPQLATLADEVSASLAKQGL

B1: murine anti-Tau hybridoma antibody 17G2.A1 (antibody, V domains shown)
VH: QVQLQQPGAELVGPGSSVKLSCKASGYTFINYWIDWMKQSPGQGLEWIGNIYPSDSESHYNQKFTDKATLTVDISSSTAYLQLSSLTSEDSAVYYCALYSKGYWGQGTSVTVSS
VL: DVLMTQTPLSLPVTLGDQASISCRSSQNIVHTNGNTYLEWYLQKPGQSPKLLIYKLSSRFSGVPDRFSGSGSGTDFTLKISRVEAEDLGVYYCFQGSHLPFTFGGGTKLEIKR
notes: mouse IgG from hybridoma; also called anti-Tau 17G2.A1
In the case of B1, the binding result in the assay with Peptide_001, with Peptide_023, in the assay with Peptide_021, with Peptide_014, with Peptide_032 and with process-control peptide was “no binding (tested: 30 ug/mL)” in each case. For the same molecule, the binding result with Peptide_047, with Peptide_045 and in the assay with Peptide_080 was “no binding (tested: 30 ug/mL)” each time.

B2: chimeric IgG clone 1D10 (antibody, V domains shown)
VH: EVQLQQSGAELVRPGASVKLSCTASGFNIKDSLMHWMKQRPEQGLEWIGWIDPEDGETKYAPKFQDKATLTADTSSNAAYLQLSSLTSEDTAIYYCVRGDWDGGYWGQGTTLTVSS
VL: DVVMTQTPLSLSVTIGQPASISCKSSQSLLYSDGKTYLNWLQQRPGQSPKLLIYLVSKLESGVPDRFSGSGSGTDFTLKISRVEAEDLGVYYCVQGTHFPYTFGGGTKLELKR
notes: mouse-human chimeric IgG from HEK293
For B2, the binding result in the assay with Peptide_001, with Peptide_023, with Peptide_021, in the assay with Peptide_014, with Peptide_032 and in the assay with process-control peptide was “no binding (tested: 5 ug/mL)” each time. The binding result with Peptide_047 was “no binding (tested: 5 ug/mL)”; with Peptide_045, “no binding (tested: 5 ug/mL)”; in the assay with Peptide_080 it was “no binding (tested: 5 ug/mL)”; in [1], “binds”; in assay [2], “binds”. Moreover, the Kd in assay [3] is 200 pM. The “normalized binding of second antibody” value was -0.07 in assay [4]; 0.88 in assay [5]; 0.12 in assay [6]; -0.05 in [7]; 1 in assay [8].

B3: chimeric IgG clone 1A5 (antibody, V domains shown)
VH: EVQLQQSGAELVRPGASVKLSCTASGFNIKDSLIHWVKQRPEQGLEWIGWIDPEDGETKYAPKFQDKATKTADTSSNTAYLQLSSLTSEDTAIYYCASGEWDYWGQGTSVTVSS
VL: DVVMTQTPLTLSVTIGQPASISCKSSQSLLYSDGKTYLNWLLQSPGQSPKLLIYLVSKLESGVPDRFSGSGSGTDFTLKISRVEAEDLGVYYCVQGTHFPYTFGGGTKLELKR
notes: as for B2
For the molecule B3, the binding result in the assay with Peptide_001, with Peptide_023, in the assay with Peptide_021, with Peptide_014, with Peptide_032 and in the assay with process-control peptide was “no binding (tested: 5 ug/mL)” in each case. In addition, the binding result with Peptide_047 is given as “no binding (tested: 5 ug/mL)”; with Peptide_045, “no binding (tested: 5 ug/mL)”; with Peptide_080, “no binding (tested: 5 ug/mL)”; in [1], “binds”; in assay [2], “binds”. Also, the dissociation constant Kd in [3] was determined as 200 pM. The “normalized binding of second antibody” value in [4] was -0.13; in assay [5], 0.7; in assay [6], -0.1; in assay [7], -0.35; in assay [8], 1.

B4: chimeric IgG clone 1A1 (antibody, V domains shown)
VH: EVQLQQSGAELVRPGASVRLSCTASGFNIKDSLMHWLKQRPEQGLEWIGWIDPEDGETKYAPKFQDKATITADTSSNTAYLQLSSLTSEDTAIYYCTRRDWEGPWGQGTLVTVSA
VL: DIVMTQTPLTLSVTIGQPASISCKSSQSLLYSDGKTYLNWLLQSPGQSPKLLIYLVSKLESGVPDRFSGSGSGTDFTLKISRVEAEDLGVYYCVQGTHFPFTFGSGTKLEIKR
notes: mouse-human chimeric IgG from HEK293; also called anti-Tau 1A1; anti-Tau^1A1
Consider B4, for which the binding result with Peptide_001, in the assay with Peptide_023, with Peptide_021, with Peptide_014, with Peptide_032 and with process-control peptide was “no binding (tested: 5 ug/mL)” throughout. Moreover, the binding result is recorded as “no binding (tested: 5 ug/mL)” with Peptide_047; “no binding (tested: 5 ug/mL)” in the assay with Peptide_045; “no binding (tested: 5 ug/mL)” in the assay with Peptide_080; “binds” in [1]; “binds” in assay [2]. In addition, the Kd in assay [3] turned out to be 20 pM.

B5: chimeric IgG clone 1G7 (antibody, V domains shown)
VH: B4 VH with L11V, R19K, A24T, E89G, T97A
VL: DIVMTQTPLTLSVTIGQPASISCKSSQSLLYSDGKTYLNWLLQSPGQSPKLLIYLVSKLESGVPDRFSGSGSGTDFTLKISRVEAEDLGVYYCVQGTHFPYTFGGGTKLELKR
notes: as for B2
Turning to B5, the binding result with Peptide_001, in the assay with Peptide_023, with Peptide_021, with Peptide_014, in the assay with Peptide_032 and in the assay with process-control peptide was “no binding (tested: 5 ug/mL)” in each case. The binding result with Peptide_047 is “no binding (tested: 5 ug/mL)”; with Peptide_045 it was “no binding (tested: 5 ug/mL)”; with Peptide_080, “no binding (tested: 5 ug/mL)”; in assay [1], “binds”; in assay [2], “binds”. For the same molecule, the dissociation constant Kd in [3] worked out at 100 pM. In addition, the “normalized binding of second antibody” value is -0.04 in assay [4]; 0.85 in [5]; -0.03 in assay [6]; -0.12 in assay [7]; 1 in assay [8].

The values are drawn from US20200216522A1 (DENALI THERAPEUTICS, published 2020).
